Starred links: 1 amine or outer side, 2 acyl side, 3 side chain; linkers in the order of their positions; H or OH if unused. Positions of bridges follow the written chain, without caps; N, C: chain ends. Non-standard residues stand in square brackets, D forms with d. Primed or numbered codes have the meaning given here. B5(4) = 2,2-bis(4-pentenyl)glycine = 2-amino-2-(pent-4-en-1-yl)hept-6-enoic acid (stitching residue), C=CCCCC(CCCC=C)(N[*:1])C(=O)[*:2]; PyrS = (S)-1-((allyloxy)carbonyl)-3-aminopyrrolidine-3-carboxylic acid, C=CCOC(=O)N1CC[C@@](N[*:1])(C(=O)[*:2])C1; B5 = 2-amino-2-(pent-4-en-1-yl)hept-6-enoic acid, C=CCCCC(CCCC=C)(N[*:1])C(=O)[*:2]; Phe(3-CF3) = N[C@@H](Cc1cccc(C(F)(F)F)c1)C(=O)O; S7 = C[C@@](CCCCCC=[*:3])(N[*:1])C(=O)[*:2]; Phe(4-F) = N[C@@H](Cc1ccc(F)cc1)C(=O)O; αAllylPro = C=CC[C@@]1(C(=O)O)CCCN1; R8 = C=CCCCCCC[C@@](C)(N)C(=O)O; S8 = C=CCCCCCC[C@](C)(N)C(=O)O

The IC50 is the midpoint of a concentration-inhibition curve. For orientation: EC50 means the concentration at which the effect is half-maximal. Lower therefore signals an effect from little substance.

Test [1] concerns the target T1, beta-Catenin (full-length, Uniprot ID P35222) (Homo sapiens (Human), UniProt P35222 1-781).
T1 construct: also called bCat; B-Catenin
T1 sequence: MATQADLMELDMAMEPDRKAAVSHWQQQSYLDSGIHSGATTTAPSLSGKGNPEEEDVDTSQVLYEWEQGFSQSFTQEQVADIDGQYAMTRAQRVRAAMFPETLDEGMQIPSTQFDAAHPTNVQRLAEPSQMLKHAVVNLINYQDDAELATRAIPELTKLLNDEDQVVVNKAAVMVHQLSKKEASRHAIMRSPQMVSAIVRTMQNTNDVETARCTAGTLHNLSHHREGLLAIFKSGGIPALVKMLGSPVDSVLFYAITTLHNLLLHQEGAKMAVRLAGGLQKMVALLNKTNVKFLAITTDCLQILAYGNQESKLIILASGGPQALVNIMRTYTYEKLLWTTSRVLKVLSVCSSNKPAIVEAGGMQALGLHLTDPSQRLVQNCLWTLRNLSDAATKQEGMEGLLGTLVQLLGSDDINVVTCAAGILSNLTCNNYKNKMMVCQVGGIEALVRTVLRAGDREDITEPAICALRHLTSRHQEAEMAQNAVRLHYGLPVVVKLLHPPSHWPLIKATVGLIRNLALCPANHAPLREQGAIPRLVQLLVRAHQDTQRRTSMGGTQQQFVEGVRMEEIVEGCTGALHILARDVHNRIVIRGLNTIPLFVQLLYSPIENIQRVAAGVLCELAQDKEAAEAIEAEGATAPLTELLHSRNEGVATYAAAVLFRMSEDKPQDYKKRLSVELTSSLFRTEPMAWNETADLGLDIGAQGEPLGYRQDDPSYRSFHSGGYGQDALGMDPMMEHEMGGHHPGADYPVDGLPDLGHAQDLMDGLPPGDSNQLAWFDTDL
The experiment in a line: fluorescence polarization competition: peptide titrated against 10 nM full-length beta-catenin + 10 nM 5FAM-labeled TCF4 residues 10-53 probe. As for the experimental part: (§1) The plate was incubated protected from light for 60 minutes at 20° C. prior to read. Reads were performed on a CLARIOstar plate reader (BMG Labtech) in duplicate, and data were fitted to a 1:1 binding model with hill slope using an in-house script. All provided concentrations are final concentrations.
(Fluorescence polarisation rises when a labelled molecule tumbles more slowly, as on binding a larger partner.)

In test [2] the target is T2, full-length beta-Catenin (Uniprot ID P35222) (Homo sapiens (Human), UniProt P35222 2-781).
T2 construct: Used full-length in both the FP and the AlphaScreen assay; also called B-Catenin; bCat
T2 sequence: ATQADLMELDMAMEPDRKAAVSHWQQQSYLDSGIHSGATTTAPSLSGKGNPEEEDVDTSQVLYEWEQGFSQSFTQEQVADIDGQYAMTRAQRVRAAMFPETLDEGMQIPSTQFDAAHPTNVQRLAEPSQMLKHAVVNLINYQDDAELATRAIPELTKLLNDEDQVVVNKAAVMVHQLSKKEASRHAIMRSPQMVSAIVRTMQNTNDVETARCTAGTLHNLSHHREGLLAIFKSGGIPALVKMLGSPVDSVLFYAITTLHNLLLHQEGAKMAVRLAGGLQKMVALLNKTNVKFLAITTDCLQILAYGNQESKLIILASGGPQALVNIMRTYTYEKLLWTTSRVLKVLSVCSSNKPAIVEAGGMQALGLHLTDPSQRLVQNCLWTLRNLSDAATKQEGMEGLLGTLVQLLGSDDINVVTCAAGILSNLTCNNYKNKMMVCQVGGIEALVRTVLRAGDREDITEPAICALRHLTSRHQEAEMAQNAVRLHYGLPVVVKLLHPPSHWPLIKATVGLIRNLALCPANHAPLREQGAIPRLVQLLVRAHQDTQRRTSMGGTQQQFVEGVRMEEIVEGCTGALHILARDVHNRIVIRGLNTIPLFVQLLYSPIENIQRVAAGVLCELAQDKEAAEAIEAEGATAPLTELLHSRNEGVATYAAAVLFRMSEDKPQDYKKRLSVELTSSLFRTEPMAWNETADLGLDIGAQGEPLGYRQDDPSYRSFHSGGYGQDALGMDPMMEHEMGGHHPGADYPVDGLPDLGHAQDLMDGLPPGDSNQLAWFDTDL
The experiment in a line: fluorescence polarization competition; full-length beta-catenin, 5FAM-TCF4(10-53) probe. The method, then:
as §1

The target of test [3] is T2, full-length beta-Catenin (Uniprot ID …). The experiment in a line: AlphaScreen competition; full-length beta-catenin, biotin-TCF4(10-53) probe. The method, then: (§2) Equal volume of the titrated peptide was added to the plate and incubated for 15 minutes at 20° C. Then 4 uL of donor and 4 uL acceptor beads at 10 ug/mL were added to the plate, for a 16 uL reaction pool and protected from light for 60 minutes at 20° C. prior to read. Reads were performed on a CLARIOstar plate reader (BMG Labtech) in duplicate, and data were fitted to a 1:1 binding model with hill slope using an in-house script. All provided concentrations are final concentrations.
A general note: Alpha assays give light when donor and acceptor beads are brought close together.

Test [4] deals with T3, full-length beta-Catenin (Uniprot ID P35222) (Homo sapiens (Human), UniProt P35222 2-781).
T3 construct: also called B-Catenin; bCat
T3 sequence: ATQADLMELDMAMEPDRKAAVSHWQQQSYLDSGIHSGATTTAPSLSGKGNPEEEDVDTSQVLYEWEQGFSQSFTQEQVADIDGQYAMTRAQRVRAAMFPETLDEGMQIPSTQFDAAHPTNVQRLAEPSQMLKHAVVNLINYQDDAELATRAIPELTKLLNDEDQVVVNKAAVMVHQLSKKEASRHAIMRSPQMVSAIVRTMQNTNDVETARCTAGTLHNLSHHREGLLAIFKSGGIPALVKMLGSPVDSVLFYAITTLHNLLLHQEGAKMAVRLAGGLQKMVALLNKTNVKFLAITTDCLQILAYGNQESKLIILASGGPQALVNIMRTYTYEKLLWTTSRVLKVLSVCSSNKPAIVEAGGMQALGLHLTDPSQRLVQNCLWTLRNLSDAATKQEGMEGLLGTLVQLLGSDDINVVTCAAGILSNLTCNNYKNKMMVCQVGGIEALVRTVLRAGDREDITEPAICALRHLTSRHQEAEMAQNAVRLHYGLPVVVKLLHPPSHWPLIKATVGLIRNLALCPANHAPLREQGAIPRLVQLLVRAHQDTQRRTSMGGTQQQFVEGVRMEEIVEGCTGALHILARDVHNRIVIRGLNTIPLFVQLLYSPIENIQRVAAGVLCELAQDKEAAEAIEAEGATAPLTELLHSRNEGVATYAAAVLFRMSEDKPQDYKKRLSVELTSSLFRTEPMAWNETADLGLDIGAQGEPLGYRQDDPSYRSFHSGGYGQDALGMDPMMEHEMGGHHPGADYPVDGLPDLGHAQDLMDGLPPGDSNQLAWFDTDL
Nature of the test: Alphascreen competition; biotin-TCF4(10-53) probe with full-length beta-catenin. As for the experimental part: as §2

For test [5], the target named is T3, full-length beta-Catenin (Uniprot ID …). The experiment in a line: fluorescence polarization competition; 5FAM-TCF4(10-53) probe with full-length beta-catenin. As for the experimental part:
as §1

B1: I-254: Ac-PL3-Asp-Ala-B5-Asp-Asp-Ala-Ala-Phe-Val-S8-4F3MeF-Trp-Gln-NH2 (peptide)
peptide: XDAXDDAAFVXFWQ
modifications: not fully specified; N-terminal Ac; PL3 at position 1; B5 at position 4; S8 at position 11; 4F3MeF at position 12; C-terminal NH2; stapled by olefin metathesis (PL3-B5 and B5-S8)
notes: These are separate isomer compositions
On to B1, for which the IC50 in test [1] was 5 µM.

B2: I-262: Ac-PL3-Asp-Ala-B5-Asp-Asp-Ala-Ala-Phe-Val-S8-34FF-Trp-Gln-NH2 (peptide)
peptide: XDAXDDAAFVXFWQ
modifications: not fully specified; N-terminal Ac; PL3 at position 1; B5 at position 4; S8 at position 11; 34FF at position 12; C-terminal NH2; stapled by olefin metathesis (PL3-B5 and B5-S8)
notes: It is the earlier-eluting isomer composition
Turning to B2, the IC50 in test [1] amounted to 5 µM.

B3: I-250: Ac-PL3-Asp-Ala-B5-Asp-Asp-Ala-Ala-Phe-Val-S8-3F3MeF-Trp-Gln-NH2 (peptide)
peptide: Ac-[αAllylPro]DA[B5]DDAAFV[S8][Phe(3-CF3)]WQ-NH2
modifications: staple 1-4, 4-11
notes: as for B1
As to B3, the IC50 in test [1] is 5 µM.

B4: I-78 (peptide)
peptide: Ac-FDA[R8]DDAA[Phe(4-F)]V[PyrS]FWQ-NH2
modifications: staple 4-11
notes: Stapled peptide; also called Ac-Phe-Asp-Ala-R8-Asp-Asp-Ala-Ala-4FF-Val-PyrS-Phe-Trp-Gln-NH2
B4: the EC50 in test [2] amounted to 5 µM; in test [3] it was 7.48 µM.

B5: I-132 (peptide)
peptide: Ac-[αAllylPro]DA[B5(4)]DEAAFV[S7]FWQ-NH2
modifications: staple 1-4, 4-11
notes: Stitched (two-staple) peptide composition
For B5, the results for the EC50 in test [4] and in test [5] were 5.09 µM and 5 µM, respectively.

B6: I-263: Ac-PL3-Asp-Ala-B5-Asp-Asp-Ala-Ala-Phe-Val-S8-34FF-Trp-Gln-NH2 (peptide)
peptide: XDAXDDAAFVXFWQ
modifications: not fully specified; N-terminal Ac; PL3 at position 1; B5 at position 4; S8 at position 11; 34FF at position 12; C-terminal NH2; stapled by olefin metathesis (PL3-B5 and B5-S8)
notes: It is the later-eluting isomer composition
Turning to B6, the IC50 in test [1] came out at 5 µM.

For the origin of these results see patent US20240116985A1 (published 2024).
